Results from publication PMC5374107, “Structure-Guided Identification of a Family of Dual Receptor-Binding PfEMP1 that Is Associated with Cerebral Malaria” (Cell Host & Microbe, 2017).

T1: Recombinant His-tagged EPCR (human, UniProt Q9UNN8 18-238, biotin (biotinylated by BirA))
T1 construct: endothelial protein C receptor (EPCR); also called endothelial protein C receptor; source: S2 cells, purified and biotinylated (Lau et al., 2015)
T1 sequence: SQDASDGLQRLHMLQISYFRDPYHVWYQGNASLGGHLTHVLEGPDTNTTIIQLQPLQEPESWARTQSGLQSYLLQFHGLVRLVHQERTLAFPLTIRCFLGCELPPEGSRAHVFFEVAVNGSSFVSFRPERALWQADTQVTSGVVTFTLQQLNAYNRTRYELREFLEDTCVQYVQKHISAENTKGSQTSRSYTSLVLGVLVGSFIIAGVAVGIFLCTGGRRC

B1: PF11_0521 head structure (NTS-DBLα1.7-CIDRα1.4-DBLβ3) (domain or fragment)
chain: MGNAIPATPDPIFINESYKSARNVLENVARLIKAKATKDVKRHRNVLKGNLRNAKFYHPFSKERPYYKSACDLDYRFHSNIWSGDNTYRHPCAGRNRNRFSYEGEAECRISRITGNKTEHGACAPYRRRHLCDYIFHQVNDNYIKTSDDLLGNLLVTAKYEGESIVNSYANSGMFNVCTALARSFADIGDIIRGKDLYLGNGDYKEKVSNNLRAIFNKIYENLNDPKLKKHYQKDAPNYYKLRDDWWNANREDVWKALTCNAPYEAQYFIKPSDKEHSFSSEYCGHYKNGDPLTNLDYVPQFLRWFEEWAEEFCRIKKIKLENVKNACRDEKKRKYCSLNGFDCTQTIWKKKVFGRGNDCTNCSFKCFPYEIWLGNQREAFRKQKEKYAKEIEAYVTNRGIPKSSINNGYYKDFYNKLKEKTYNTVDEFINLLNEGRYCKKQKPEEENIDFIKTGEKGTFYRSDYCQVCPDCGVDCSSGTCIEKKDDINCGKKINYEPPHGVKPIDIIVLYSGNEEGEITKRLSEFCTDSSNNKGKNYEQWKCYYKNGDDNKCKMVKNSGNNITEEKIISFDEFFYVWVRKLLIDSIKWENELNNCIDNTSTHCNKECNKNCECFDKWVKKKEDEWKNVKNVFENKNGTSHNYYNKLNGLFKGFFFEVMDKLNKDETKWNKLIESLRTKIDSSKENIGTGNTQDTIKVLLDHLKETATICKDNNTNEACETSRNRKTNPCAKPHGKKLATVKQIAQYYKRKAYIQLNERGSRSALKGDASQGQYDRGGKADDFKTKLCEINEKHSNARSNSLNPCNGKDNNKVRFNVGTPWQSGEKIATATDVYLPPRRQHFCTSNLEYLINGGHQAILNVKNGKINHSFLGDVLLAAKYQAQHTMKDYKSKNDKEGICRAIRYSFADIGDIIKGTDLWDKDGGEIKTQNHLVTIFDKIKAQLPKDIKGKYTGTKHLELRKDWWEANRDQVWKAMQCGNDNPCSGESDHTPLHDYIPQRLRWMTEWAEWYCKEQSRLYDKLKVCEECMRKGESCTKGSGECATCKEACEEYNKEIKKWEQQWDAISYKYLMLYAKARITAINGGPGYYNTEVQEEDKPVVDFLYNLYLQNGGKKGPPPDTHRVKALIARVKRDAARNRVKRADGSSATRVTATTTITPYSTAAGYIHQEAHIGDCQKQTQFCKNKNGSDVSDTEADPTYAFRDKPHDHDTACKC
B2: ICAM-1D1D5-Fc::PF11_0521 head structure complex (complex)
chain 1: QTSVSPSKVILPRGGSVLVTCSTSCDQPKLLGIETPLPKKELLLPGNNRKVYELSNVQEDSQPMCYSNCPDGQSTAKTFLTVYWTPERVELAPLPSWQPVGKNLTLRCQVEGGAPRANLTVVLLRGEKELKREPAVGEPAEVTTTVLVRRDHHGANFSCRTELDLRPQGLELFENTSAPYQLQTFVLPATPPQLVSPRVLEVDTQGTVVCSLDGLFPVSEAQVHLALGDQRLNPTVTYGNDSFSAKASVSVTAEDEGTQRLTCAVILGNQSQETLQTVTIYSFPAPNVILTKPEVSEGTEVTVKCEAHPRAKVTLNGVPAQPLGPRAQLLLKATPEDNGRSFSCSATLEVAGQLIHKNQTRELRVLYGPRLDERDCPGNWTWPENSQQTPMCQAWGNPLPELKCLKDGTFPLPIGESVTVTRDLEGTYLCRARSTQGEVTRKVTVNVLSPRYE
chain 2: B1 chain

Tests used:
Settings in all cases: both partners purified
ICAM-1D1D5-Fc = target: T2, ICAM-1D1D5-Fc (human); assay: SPR; Biacore T-200; ICAM-1D1D5 Fc immobilized to 1,400 RU on a CM5 chip pre-coupled to Protein A; head structures injected, two-fold dilutions 4 nM to 500 nM, 40 µL/min, 240 s association, 600 s dissociation; 10 mM HEPES pH 8.0, 300 mM NaCl, 0.05% Tween-20; one-site kinetic model
T2 construct: intercellular adhesion molecule 1 (ICAM-1), domains D1 to D5; captured on protein A by its Fc; also called ICAMD1D5; ICAM-1-Fc; source: HEK cells, recombinant (Bengtsson et al., 2013a)

[1] = target: T1, Recombinant His-tagged EPCR; assay: SPR; Biacore T-200; biotinylated EPCR immobilized to 650 RU on a CAP chip (Biotin Capture Kit); head structures injected, two-fold dilutions 500 nM to 4 nM, 30 µL/min, 240 s association, 720 s dissociation; 10 mM HEPES pH 7.4, 300 mM NaCl, 0.05% Tween-20, 2 mg/ml ssDNA; one-site kinetic model
[2] = target: T1, Recombinant His-tagged EPCR; assay: SPR; Biacore T-200; dual binding: ICAM-1D1D5 Fc immobilized (1,800, 2,100 or 1,500 RU) on Protein A CM5 chip, head structure injected at 250 nM for 240 s, then EPCR injected, two-fold dilutions 250 nM to 16 nM, 30 µL/min, 240 s association, 720 s dissociation; 10 mM HEPES pH 8.0, 300 mM NaCl, 0.05% Tween-20; one-site kinetic model

Binder	Kd (ICAM-1D1D5-Fc) [nM]	koff (ICAM-1D1D5-Fc) [s⁻¹]	kon (ICAM-1D1D5-Fc) [M⁻¹ s⁻¹]	Kd [1] [nM]	koff [1] [s⁻¹]	kon [1] [M⁻¹ s⁻¹]	Kd [2] [nM]	koff [2] [s⁻¹]	kon [2] [M⁻¹ s⁻¹]
B1	2.33	5.41e-05	23200	1.18	4.5e-05	38100			
B2							11.4	0.000195	17200
